Publication PMC8096248

B1: primed DNA d29/d45 (dsDNA)
DNA 1: GGTACCGGGCCCCCCCTCGAGGTCGACGG
DNA 2: ATCAAGCTTATCGATACCGTCGACCTCGAGGGGGGGCCCGGTACC
modifications: 3'-OH of d29 replaced by NH2
B2: PriL, large subunit of primase, T. kodakarensis, recombinant (natural protein)
chain: MLDPFGKRAESLIREEFGDLLALLERVPSAISVEEPISLVSWMLESENPPQELVEVDNLEELRDLFKFYALLGAASISPYGLEAEVVKRATLRLYSERIKASKNLSETMLPVVPVGENEIPHNDLNILERRMDRNLSPEEKEKLKIKYKIPIKDLLNLWGSSLKEVYIRNGYAYLRWETALKMWEKAFEKRFERAVNILYEYRDELPEFYHRLREKLEEIAEEYFKERGEMFKGTASPLRFDLFPPCVKEALKGVPAGMRNYAITVLLTSFLSYARICPNPPKKDVRIKDCINDLKIIEEEILPVIIEAGNRCKPPLFEDQPHEIKNIWYHLGFGLTDSPTMEDSGNSTWYFPPNCDKIRANAPQLCKPDKYCRGIKNPLSYYLKRLYLEGKKKEGETSE
B3: PriS, small subunit of primase, T. kodakarensis, recombinant (natural protein)
chain: MSKLLREVTPEERRLYYSGEWDAKKLPEFIVESIERREFGFDHTGEGPSDRKNAFSDVRDLEDYIRATAPYAAYSSVAFYRNPQEMEGWLGAELVFDIDAKDLPLRRCQNEHPSGQVCPICLEDAKELARDTLIILKEDFGFENIHVVYSGRGYHIRVIDEWALKLDSKARERILSYVSAAEEVTFDDIQKRYIMLSSGYFRVFRLRFGYFIQRINENHLKNIGLKRSTAEKLLDEKTRQDIVEKFVNKGLLAAFPEGVGYRTLLRLFGLSTTFSKAYFDGRVTVDLKRILRLPSTLHSKVGLVATYIGSDEKRLEKFDPFKDAVPEFRKEEVQKAYQEWKELHEG

Key:
PolD cPIP mutant;PCNA1 = PolD cPIP mutant;PCNA1 (Thermococcus kodakarensis;Thermococcus …, UniProt Q5JET1;Q5JET0;Q5JF32 1-735;1-963+1438-1798;1-249, L1792A;F1795A;F1796A;internal_change|); test: gel filtration
PolD (DP1-DP2);PCNA1 = PolD (DP1-DP2);PCNA1 (Thermococcus kodakarensis;Thermococcus …, UniProt Q5JET1;Q5JET0;Q5JET0;Q5JF32 1-735;1-963;1438-1798;1-249, |); test: gel filtration
[1] = target: family-D DNA polymerase (PolD), DP1–DP2 complex, T. kodakarensis, recombinant wild type (Thermococcus kodakarensis) (UniProt Q5JET0); test: SPR

Binder	binding result (PolD cPIP mutant;PCNA1)	binding result (PolD (DP1-DP2);PCNA1)	Kd [1]
B1	binds	binds	–
B2	–	–	160 nM
B3	–	–	1400 nM
